Numbered stars: 1 amine (or outer) side, 2 acyl side, 3 side chain; on linkers, the order of the positions; unused ones are H or OH. Bridge positions count the residues as written; N and C are the ends. Side chains are listed from the residue outwards. Ends that are not written are not given here. * marks the point of attachment. C20 diacid = O=C(O)CCCCCCCCCCCCCCCCCCC(=O)*; γGlu = O=C(O)[C@H](CCC(=O)[*:2])N[*:1]
Key:
[1] = molecular target: T1, human calcitonin receptor (human, UniProt P30988 25-474); assay: cell-based or functional assay
T1 sequence (looked up): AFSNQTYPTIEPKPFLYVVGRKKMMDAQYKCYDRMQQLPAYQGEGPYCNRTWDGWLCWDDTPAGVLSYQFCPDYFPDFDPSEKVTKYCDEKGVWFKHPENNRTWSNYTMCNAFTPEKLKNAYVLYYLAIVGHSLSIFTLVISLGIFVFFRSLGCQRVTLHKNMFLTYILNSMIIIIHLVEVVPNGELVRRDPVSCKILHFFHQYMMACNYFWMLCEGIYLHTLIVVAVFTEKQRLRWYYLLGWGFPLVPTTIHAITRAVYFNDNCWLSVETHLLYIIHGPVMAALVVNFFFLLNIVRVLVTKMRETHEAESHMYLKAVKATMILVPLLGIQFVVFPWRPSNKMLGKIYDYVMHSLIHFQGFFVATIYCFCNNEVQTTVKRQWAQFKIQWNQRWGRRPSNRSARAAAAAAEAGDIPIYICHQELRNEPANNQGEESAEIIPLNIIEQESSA

[2] = molecular target: T2, human amylin 3(a) receptor (human calcitonin receptor co-expressed with RAMP-3) (human, UniProt P30988 25-474; O60896 24-148, limits assumed); assay: cell-based or functional assay
T2 sequence (looked up) 1: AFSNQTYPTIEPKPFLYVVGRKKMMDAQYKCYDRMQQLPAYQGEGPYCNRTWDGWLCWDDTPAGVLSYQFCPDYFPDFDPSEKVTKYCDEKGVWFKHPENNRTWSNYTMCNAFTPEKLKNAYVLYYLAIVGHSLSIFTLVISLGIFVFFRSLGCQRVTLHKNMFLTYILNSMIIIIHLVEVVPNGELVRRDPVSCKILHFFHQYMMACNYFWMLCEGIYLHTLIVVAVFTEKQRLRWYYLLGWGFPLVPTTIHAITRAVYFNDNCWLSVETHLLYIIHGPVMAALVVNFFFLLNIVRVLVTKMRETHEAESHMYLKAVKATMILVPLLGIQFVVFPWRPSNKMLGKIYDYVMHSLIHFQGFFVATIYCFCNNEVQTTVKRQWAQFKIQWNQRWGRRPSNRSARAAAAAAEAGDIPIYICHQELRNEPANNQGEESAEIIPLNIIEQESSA
T2 sequence (looked up) 2: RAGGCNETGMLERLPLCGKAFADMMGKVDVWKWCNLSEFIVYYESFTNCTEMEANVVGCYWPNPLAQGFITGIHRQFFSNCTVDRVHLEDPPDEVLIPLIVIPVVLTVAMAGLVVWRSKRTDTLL

B1: N^ε1-[(4S)-4-carboxy-4-(19-carboxynonadecanoylamino)butanoyl]-[Glu14,Arg17,Pro21,Pro27,Pro34,Arg35]-h-amylin (peptide)
peptide: K([γGlu-C20 diacid])CNTATCATQRLAEFLRHSSPNFGAIPSSTNVGPRTY-NH2
modifications: disulfide 2-7; N-terminus assumed
SMILES: CC[C@H](C)[C@H](NC(=O)[C@H](C)NC(=O)CNC(=O)[C@H](Cc1ccccc1)NC(=O)[C@H](CC(N)=O)NC(=O)[C@@H]1CCCN1C(=O)[C@H](CO)NC(=O)[C@H](CO)NC(=O)[C@H](Cc1c[nH]cn1)NC(=O)[C@H](CCCNC(=N)N)NC(=O)[C@H](CC(C)C)NC(=O)[C@H](Cc1ccccc1)NC(=O)[C@H](CCC(=O)O)NC(=O)[C@H](C)NC(=O)[C@H](CC(C)C)NC(=O)[C@H](CCCNC(=N)N)NC(=O)[C@H](CCC(N)=O)NC(=O)[C@@H](NC(=O)[C@H](C)NC(=O)[C@@H]1CSSC[C@H](NC(=O)[C@@H](N)CCCCNC(=O)CC[C@H](NC(=O)CCCCCCCCCCCCCCCCCCC(=O)O)C(=O)O)C(=O)N[C@@H](CC(N)=O)C(=O)N[C@@H]([C@@H](C)O)C(=O)N[C@@H](C)C(=O)N[C@@H]([C@@H](C)O)C(=O)N1)[C@@H](C)O)C(=O)N1CCC[C@H]1C(=O)N[C@@H](CO)C(=O)N[C@@H](CO)C(=O)N[C@H](C(=O)N[C@@H](CC(N)=O)C(=O)N[C@H](C(=O)NCC(=O)N1CCC[C@H]1C(=O)N[C@@H](CCCNC(=N)N)C(=O)N[C@H](C(=O)N[C@@H](Cc1ccc(O)cc1)C(N)=O)[C@@H](C)O)C(C)C)[C@@H](C)O
- Ratio hCT/hAmylin funct. [1]: 17
- hCTR funct. EC50 [1]: 6380 pM
- hAmylin-R funct. EC50 [2]: 376 pM

B2: N^ε1-[(4S)-4-carboxy-4-(19-carboxynonadecanoylamino)butanoyl]-[His14,Arg17,Pro21,Pro27,Pro31,Pro34]-h-amylin (peptide)
peptide: K([γGlu-C20 diacid])CNTATCATQRLAHFLRHSSPNFGAIPSSTPVGPNTY-NH2
modifications: disulfide 2-7; N-terminus assumed
SMILES: CC[C@H](C)[C@H](NC(=O)[C@H](C)NC(=O)CNC(=O)[C@H](Cc1ccccc1)NC(=O)[C@H](CC(N)=O)NC(=O)[C@@H]1CCCN1C(=O)[C@H](CO)NC(=O)[C@H](CO)NC(=O)[C@H](Cc1c[nH]cn1)NC(=O)[C@H](CCCNC(=N)N)NC(=O)[C@H](CC(C)C)NC(=O)[C@H](Cc1ccccc1)NC(=O)[C@H](Cc1c[nH]cn1)NC(=O)[C@H](C)NC(=O)[C@H](CC(C)C)NC(=O)[C@H](CCCNC(=N)N)NC(=O)[C@H](CCC(N)=O)NC(=O)[C@@H](NC(=O)[C@H](C)NC(=O)[C@@H]1CSSC[C@H](NC(=O)[C@@H](N)CCCCNC(=O)CC[C@H](NC(=O)CCCCCCCCCCCCCCCCCCC(=O)O)C(=O)O)C(=O)N[C@@H](CC(N)=O)C(=O)N[C@@H]([C@@H](C)O)C(=O)N[C@@H](C)C(=O)N[C@@H]([C@@H](C)O)C(=O)N1)[C@@H](C)O)C(=O)N1CCC[C@H]1C(=O)N[C@@H](CO)C(=O)N[C@@H](CO)C(=O)N[C@H](C(=O)N1CCC[C@H]1C(=O)N[C@H](C(=O)NCC(=O)N1CCC[C@H]1C(=O)N[C@@H](CC(N)=O)C(=O)N[C@H](C(=O)N[C@@H](Cc1ccc(O)cc1)C(N)=O)[C@@H](C)O)C(C)C)[C@@H](C)O
- Ratio hCT/hAmylin funct. [1]: 4.9
- hCTR funct. EC50 [1]: 345 pM
- hAmylin-R funct. EC50 [2]: 71 pM

B3: N^ε1-[(4S)-4-carboxy-4-(19-carboxynonadecanoylamino)butanoyl]-[Glu14,Arg17,Pro21,Pro27,Pro34,Glu35]-h-amylin (peptide)
peptide: K([γGlu-C20 diacid])CNTATCATQRLAEFLRHSSPNFGAIPSSTNVGPETY-NH2
modifications: disulfide 2-7; N-terminus assumed
SMILES: CC[C@H](C)[C@H](NC(=O)[C@H](C)NC(=O)CNC(=O)[C@H](Cc1ccccc1)NC(=O)[C@H](CC(N)=O)NC(=O)[C@@H]1CCCN1C(=O)[C@H](CO)NC(=O)[C@H](CO)NC(=O)[C@H](Cc1c[nH]cn1)NC(=O)[C@H](CCCNC(=N)N)NC(=O)[C@H](CC(C)C)NC(=O)[C@H](Cc1ccccc1)NC(=O)[C@H](CCC(=O)O)NC(=O)[C@H](C)NC(=O)[C@H](CC(C)C)NC(=O)[C@H](CCCNC(=N)N)NC(=O)[C@H](CCC(N)=O)NC(=O)[C@@H](NC(=O)[C@H](C)NC(=O)[C@@H]1CSSC[C@H](NC(=O)[C@@H](N)CCCCNC(=O)CC[C@H](NC(=O)CCCCCCCCCCCCCCCCCCC(=O)O)C(=O)O)C(=O)N[C@@H](CC(N)=O)C(=O)N[C@@H]([C@@H](C)O)C(=O)N[C@@H](C)C(=O)N[C@@H]([C@@H](C)O)C(=O)N1)[C@@H](C)O)C(=O)N1CCC[C@H]1C(=O)N[C@@H](CO)C(=O)N[C@@H](CO)C(=O)N[C@H](C(=O)N[C@@H](CC(N)=O)C(=O)N[C@H](C(=O)NCC(=O)N1CCC[C@H]1C(=O)N[C@@H](CCC(=O)O)C(=O)N[C@H](C(=O)N[C@@H](Cc1ccc(O)cc1)C(N)=O)[C@@H](C)O)C(C)C)[C@@H](C)O
- Ratio hCT/hAmylin funct. [1]: 5.2
- hCTR funct. EC50 [1]: 841 pM
- hAmylin-R funct. EC50 [2]: 161 pM

B4: N^ε1-[(4S)-4-carboxy-4-[[(4S)-4-carboxy-4-(19-carboxynonadecanoylamino)butanoyl]amino]butanoyl]-[Arg17,Pro21,Pro27,His34]-h-amylin (peptide)
peptide: K([γGlu-γGlu-C20 diacid])CNTATCATQRLANFLRHSSPNFGAIPSSTNVGHNTY-NH2
modifications: disulfide 2-7; N-terminus assumed
SMILES: CC[C@H](C)[C@H](NC(=O)[C@H](C)NC(=O)CNC(=O)[C@H](Cc1ccccc1)NC(=O)[C@H](CC(N)=O)NC(=O)[C@@H]1CCCN1C(=O)[C@H](CO)NC(=O)[C@H](CO)NC(=O)[C@H](Cc1c[nH]cn1)NC(=O)[C@H](CCCNC(=N)N)NC(=O)[C@H](CC(C)C)NC(=O)[C@H](Cc1ccccc1)NC(=O)[C@H](CC(N)=O)NC(=O)[C@H](C)NC(=O)[C@H](CC(C)C)NC(=O)[C@H](CCCNC(=N)N)NC(=O)[C@H](CCC(N)=O)NC(=O)[C@@H](NC(=O)[C@H](C)NC(=O)[C@@H]1CSSC[C@H](NC(=O)[C@@H](N)CCCCNC(=O)CC[C@H](NC(=O)CC[C@H](NC(=O)CCCCCCCCCCCCCCCCCCC(=O)O)C(=O)O)C(=O)O)C(=O)N[C@@H](CC(N)=O)C(=O)N[C@@H]([C@@H](C)O)C(=O)N[C@@H](C)C(=O)N[C@@H]([C@@H](C)O)C(=O)N1)[C@@H](C)O)C(=O)N1CCC[C@H]1C(=O)N[C@@H](CO)C(=O)N[C@@H](CO)C(=O)N[C@H](C(=O)N[C@@H](CC(N)=O)C(=O)N[C@H](C(=O)NCC(=O)N[C@@H](Cc1c[nH]cn1)C(=O)N[C@@H](CC(N)=O)C(=O)N[C@H](C(=O)N[C@@H](Cc1ccc(O)cc1)C(N)=O)[C@@H](C)O)C(C)C)[C@@H](C)O
notes: also called compound 86
- Ratio hCT/hAmylin funct. [1]: 64.4
- hCTR funct. EC50 [1]: 19200 pM
- hAmylin-R funct. EC50 [2]: 298 pM

B5: N^ε1-[(4S)-4-carboxy-4-(19-carboxynonadecanoylamino)butanoyl]-[His14,Arg17,Pro21,Pro27,His34]-h-amylin (peptide)
peptide: K([γGlu-C20 diacid])CNTATCATQRLAHFLRHSSPNFGAIPSSTNVGHNTY-NH2
modifications: disulfide 2-7; N-terminus assumed
SMILES: CC[C@H](C)[C@H](NC(=O)[C@H](C)NC(=O)CNC(=O)[C@H](Cc1ccccc1)NC(=O)[C@H](CC(N)=O)NC(=O)[C@@H]1CCCN1C(=O)[C@H](CO)NC(=O)[C@H](CO)NC(=O)[C@H](Cc1c[nH]cn1)NC(=O)[C@H](CCCNC(=N)N)NC(=O)[C@H](CC(C)C)NC(=O)[C@H](Cc1ccccc1)NC(=O)[C@H](Cc1c[nH]cn1)NC(=O)[C@H](C)NC(=O)[C@H](CC(C)C)NC(=O)[C@H](CCCNC(=N)N)NC(=O)[C@H](CCC(N)=O)NC(=O)[C@@H](NC(=O)[C@H](C)NC(=O)[C@@H]1CSSC[C@H](NC(=O)[C@@H](N)CCCCNC(=O)CC[C@H](NC(=O)CCCCCCCCCCCCCCCCCCC(=O)O)C(=O)O)C(=O)N[C@@H](CC(N)=O)C(=O)N[C@@H]([C@@H](C)O)C(=O)N[C@@H](C)C(=O)N[C@@H]([C@@H](C)O)C(=O)N1)[C@@H](C)O)C(=O)N1CCC[C@H]1C(=O)N[C@@H](CO)C(=O)N[C@@H](CO)C(=O)N[C@H](C(=O)N[C@@H](CC(N)=O)C(=O)N[C@H](C(=O)NCC(=O)N[C@@H](Cc1c[nH]cn1)C(=O)N[C@@H](CC(N)=O)C(=O)N[C@H](C(=O)N[C@@H](Cc1ccc(O)cc1)C(N)=O)[C@@H](C)O)C(C)C)[C@@H](C)O
notes: also called compound 81
- Ratio hCT/hAmylin funct. [1]: 13.3
- hCTR funct. EC50 [1]: 1730 pM
- hAmylin-R funct. EC50 [2]: 130 pM

B6: N^ε1-[(4S)-4-carboxy-4-(19-carboxynonadecanoylamino)butanoyl]-[His14,Arg17,Pro21,Pro27,Arg34]-h-amylin (peptide)
peptide: K([γGlu-C20 diacid])CNTATCATQRLAHFLRHSSPNFGAIPSSTNVGRNTY-NH2
modifications: disulfide 2-7; N-terminus assumed
SMILES: CC[C@H](C)[C@H](NC(=O)[C@H](C)NC(=O)CNC(=O)[C@H](Cc1ccccc1)NC(=O)[C@H](CC(N)=O)NC(=O)[C@@H]1CCCN1C(=O)[C@H](CO)NC(=O)[C@H](CO)NC(=O)[C@H](Cc1c[nH]cn1)NC(=O)[C@H](CCCNC(=N)N)NC(=O)[C@H](CC(C)C)NC(=O)[C@H](Cc1ccccc1)NC(=O)[C@H](Cc1c[nH]cn1)NC(=O)[C@H](C)NC(=O)[C@H](CC(C)C)NC(=O)[C@H](CCCNC(=N)N)NC(=O)[C@H](CCC(N)=O)NC(=O)[C@@H](NC(=O)[C@H](C)NC(=O)[C@@H]1CSSC[C@H](NC(=O)[C@@H](N)CCCCNC(=O)CC[C@H](NC(=O)CCCCCCCCCCCCCCCCCCC(=O)O)C(=O)O)C(=O)N[C@@H](CC(N)=O)C(=O)N[C@@H]([C@@H](C)O)C(=O)N[C@@H](C)C(=O)N[C@@H]([C@@H](C)O)C(=O)N1)[C@@H](C)O)C(=O)N1CCC[C@H]1C(=O)N[C@@H](CO)C(=O)N[C@@H](CO)C(=O)N[C@H](C(=O)N[C@@H](CC(N)=O)C(=O)N[C@H](C(=O)NCC(=O)N[C@@H](CCCNC(=N)N)C(=O)N[C@@H](CC(N)=O)C(=O)N[C@H](C(=O)N[C@@H](Cc1ccc(O)cc1)C(N)=O)[C@@H](C)O)C(C)C)[C@@H](C)O
notes: also called compound 85
- Ratio hCT/hAmylin funct. [1]: 26.6
- hCTR funct. EC50 [1]: 3880 pM
- hAmylin-R funct. EC50 [2]: 146 pM
